Reference: paper PMC6642009

Target: FITC-SgbA(leader) (Streptomyces globisporus sp. NRRL B-2293)
Assay: fluorescence polarisation

Point of comparison: “His6-SgbL(lyase-kinase 1–548) D351A (domain or fragment)”, Kd 576 nM. Against it:
- His6-MBP-SgbL(208–318) (domain or fragment) — 54-fold higher, 31000 nM
- His6-SgbL(lyase-kinase 1–548) (domain or fragment) — 2.3-fold lower, 251 nM
- His6-SgbL(lyase-kinase 1–548) D369A (domain or fragment) — 1.6-fold lower, 353 nM
- His6-SgbL(lyase-kinase 1–548) E270A (domain or fragment) — 3-fold higher, 1720 nM
- His6-SgbL(lyase-kinase 1–548) K248A (domain or fragment) — 12-fold higher, 7110 nM
- His6-SgbL(lyase-kinase 1–548) N356A (domain or fragment) — 1.8-fold lower, 321 nM
